We go through two substances from PMC3458572.

Where two headings read alike, the source gives them in different places.

Experiment in all cases: immunodepletion
Assay [1] concerns the target Xenopus laevis FANCD2, extract-endogenous, non-ubiquitinated (Xenopus laevis (endogenous in egg extract)).
Assay [2] has the same target. This is another data set of the same source.
In assay [3] the target is Xenopus laevis FANCI, extract-endogenous (Xenopus laevis (endogenous in egg extract)) (UniProt D2JYR7).

On to “Xenopus laevis FANCI, extract-endogenous (from UniProt D2JYR7 1-1337) (natural protein)”, for which the percent co-depleted in assay [1] and in assay [2] was 80% throughout. In the case of “Xenopus laevis FANCD2, extract-endogenous, non-ubiquitinated (natural protein)”, in assay [3], the percent co-depleted was 80%.
